Test results: PMC7709125, “Bringing the Heavy Chain to Light: Creating a Symmetric, Bivalent IgG-Like Bispecific” (Antibodies, 2020)

Molecular target: T1, 5FV2 soluble VH domain targeting human VEGF (human)
T1 construct: also called anti-hVEGF VH domain; phage-derived VH domain 5FV2
Test: SPR
Settings: both partners purified

T1 sequence (heavy, as listed by the source): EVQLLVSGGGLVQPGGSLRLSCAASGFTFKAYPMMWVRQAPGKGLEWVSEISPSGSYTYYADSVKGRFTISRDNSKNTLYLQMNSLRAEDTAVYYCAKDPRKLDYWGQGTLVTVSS

B1: human vascular endothelial growth factor (VEGF) (ligand, UniProt P15692 1-395, looked up)
chain: APMAEGGGQNHHEVVKFMDVYQRSYCHPIETLVDIFQEYPDEIEYIFKPSCVPLMRCGGCCNDEGLECVPTEESNITMQIMRIKPHQGQHIGEMSFLQHNKCECRPKKDRARQENPCGPCSERRKHLFVQDPQTCKCSCKNTDSRCKARQLELNERTCRCDKPRR
notes: also called hVEGF; human VEGF; source: commercially available antigen
  Kd: 3 nM
  kon: 730000 M⁻¹ s⁻¹
